Test results published in the supplement of paper PMC9732359.
± gives the uncertainty stated by the source.

Assay: protein stability index of a GFP-peptide fusion (yeast GPS) (PSI 1-4); higher = more stable; sorted into four equal gates, so the index is relative within each strain
Summary of the method: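 Peptides tiling yeast proteins in 17-residue segments were fused downstream of GFP, with Cherry expressed from the same plasmid. As a pooled library in yeast, mid-log cultures grown in leucine-free medium were sorted into four equal gates by GFP/Cherry fluorescence ratio. Gate plasmids were PCR-amplified and Illumina-sequenced, and barcodes linked reads to strains. Each peptide received a protein stability index equal to the sum of each gate's read frequency times its gate number.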

Sequence	protein stability index (doa10∆)	protein stability index (pdr5∆)	protein stability index (san1∆)	protein stability index (ubr1∆)
RQCFREKANDIGFNKFR [RPS29A]	3.32 ± 0.15	3.3 ± 0.13	3 ± 0.098	2.92 ± 0.098
DCRMGNFYIQYDPKDGL [AAR2]	2.77 ± 0.054	2.39 ± 0.058	2.31 ± 0.08	2.61 ± 0.037
PKSGIDIFVYLTYDKDL [MTR3]	1.9 ± 0.062	1.58 ± 0.052	1.78 ± 0.11	1.7 ± 0.053
EVSGSIQYKKEYEELKE [SMC1]	3.59 ± 0.15	3.15 ± 0.14	3.29 ± 0.089	3.35 ± 0.068
LMLEDTDGDSILYYDVL [BRR2]	2.85 ± 0.074	3.17 ± 0.092	3.12 ± 0.067	3.1 ± 0.058
SSAADITMESVHEWEVS [PRP8]	3.28 ± 0.062	3.32 ± 0.055	3.31 ± 0.048	3.29 ± 0.046
QSGSNSGNNSKKRKNKS [ROX3]	2.96 ± 0.17	3.09 ± 0.097	3.02 ± 0.095	3.15 ± 0.066
ALAGGKKSKKKWSKKSM [RPS25A]	3.45 ± 0.12	3.42 ± 0.17	3.23 ± 0.16	3.63 ± 0.09
PKEEEPILAPSVKDYRP [RPS3]	2.8 ± 0.059	2.86 ± 0.079	3.04 ± 0.052	2.65 ± 0.054
ISTHLKTICNLLISDTE [IRR1]	1.64 ± 0.05	1.86 ± 0.059	1.88 ± 0.088	1.5 ± 0.032
FDSLIKVQISKIPILAQ [RPN9]	2.69 ± 0.081	1.8 ± 0.056	2.59 ± 0.094	1.96 ± 0.081
EEGYSGVEVRVTPTKTE [RPS3]	2.18 ± 0.16	3.15 ± 0.11	2.88 ± 0.091	3.11 ± 0.08
ESLKKELQIFKTANSSS [YIL149C/MLP2]	2.78 ± 0.065	2.93 ± 0.049	2.9 ± 0.059	2.61 ± 0.042
YPEYDQITKFPKYRDNL [SSN3]	2.21 ± 0.18	2.4 ± 0.13	2.24 ± 0.12	2.25 ± 0.047
SRIVEIFALCIYNSTDS [YML103C/NUP188]	1.2 ± 0.093	1.21 ± 0.086	1.52 ± 0.11	1.2 ± 0.057
MLSKTKVYYFQGGNNEL [RPL30]	2.87 ± 0.15	3.17 ± 0.26	2.99 ± 0.14	3.4 ± 0.25
GINQILGNEKNQASTSK [CDC53]	3.08 ± 0.15	3.25 ± 0.14	3.11 ± 0.092	3.2 ± 0.073
DFIQLKQTAAYRTPGSS [SSN2]	2.88 ± 0.064	2.98 ± 0.071	2.79 ± 0.083	2.92 ± 0.044
MIRLLGSESDDSEGSIK [ECM29]	2.67 ± 0.21		2.54 ± 0.26	3.4 ± 0.25

Sequence	protein stability index (doa10∆)	protein stability index (pdr5∆)	protein stability index (san1∆)	protein stability index (ubr1∆)
RKKTEAVARLKSMNKSA [SNF2]	1.68 ± 0.074	2.17 ± 0.085	2.23 ± 0.1	2.08 ± 0.065
MSFSSLYKTFFKRNAVF [QCR9]	1.67 ± 0.066	1.33 ± 0.053	1.34 ± 0.091	1.32 ± 0.048
ELSKEEKERLESLTKEI [SMC3]	3.01 ± 0.13	3.13 ± 0.15	3 ± 0.059	3.17 ± 0.077
VRIIKHTLDIINVLTDQ [RPS5]	2.11 ± 0.053	2.46 ± 0.059	2.62 ± 0.053	2.4 ± 0.044
AMEKYLLSKSKIGEEDY [MTW1]	2.35 ± 0.085	2.73 ± 0.083	2.6 ± 0.1	2.73 ± 0.042
KEKVEEQEQQQQQIIKI [RPS20]	3.16 ± 0.076	3.38 ± 0.11	3.19 ± 0.066	3.24 ± 0.091
SRTGPVFDLCWNSLMYA [RRP43]	2.64 ± 0.06	2.45 ± 0.048	2.6 ± 0.048	2.41 ± 0.032
EHGLHAPAYAWSHNGPF [CYT1]	2.83 ± 0.11	3 ± 0.073	2.52 ± 0.087	2.87 ± 0.054
YIGEFEYIDDHRSGKIV [RPS22A]	2.9 ± 0.057	3.13 ± 0.061	2.99 ± 0.051	3.01 ± 0.043
LERRELEGTRVSLEERT [SMC4]	3.4 ± 0.096	3.35 ± 0.082	3.29 ± 0.063	3.36 ± 0.1
GIDINTKIFNSVAEVFQ [YCG1]	2.08 ± 0.1	2.93 ± 0.12	2.39 ± 0.12	2.86 ± 0.067
PAALDGLMKSYKIPKVM [ESC2]	2.76 ± 0.068	2.94 ± 0.12	2.85 ± 0.061	3.45 ± 0.088
RVEPETFEIPQAHEIVI [SWI3]	2.53 ± 0.073	2.84 ± 0.08	2.54 ± 0.079	2.94 ± 0.05
THAVGNNCEDFVSRPDR [FAS1]	3.16 ± 0.12	3.08 ± 0.18	2.97 ± 0.072	3.04 ± 0.087
MNIPQRQFSNEEVNRCY [SNF2]	2.44 ± 0.1	3 ± 0.14	2.96 ± 0.26	3 ± 0.065
IVTPVEKAVEEKPAVKS [RPT3]	2.6 ± 0.1	3.07 ± 0.064	3.17 ± 0.051	3.13 ± 0.086
NTSLPPSILEDSLENNE [FAS1]	2.89 ± 0.11	2.98 ± 0.11	3.11 ± 0.095	2.81 ± 0.079
NSQTVSGTPITQTESKK [SNF2]	2.67 ± 0.05	2.27 ± 0.05	2.7 ± 0.053	2.39 ± 0.039
KKLFQKKENLTRDETVS [YML103C/NUP188]	2.65 ± 0.23	3.29 ± 0.12	3.01 ± 0.08	3.3 ± 0.088
